# Test results reported in patent publication US20220298229A1 (ICHOR BIOLOGICS, published 2022).
# T1: ANDV glycoprotein (GPC), glycoproteins Gn and Gc of hantavirus strain Chile-9717869 (Andes Virus (hantavirus strain …, UniProt Q9E006 19-1138))
# T1 sequence: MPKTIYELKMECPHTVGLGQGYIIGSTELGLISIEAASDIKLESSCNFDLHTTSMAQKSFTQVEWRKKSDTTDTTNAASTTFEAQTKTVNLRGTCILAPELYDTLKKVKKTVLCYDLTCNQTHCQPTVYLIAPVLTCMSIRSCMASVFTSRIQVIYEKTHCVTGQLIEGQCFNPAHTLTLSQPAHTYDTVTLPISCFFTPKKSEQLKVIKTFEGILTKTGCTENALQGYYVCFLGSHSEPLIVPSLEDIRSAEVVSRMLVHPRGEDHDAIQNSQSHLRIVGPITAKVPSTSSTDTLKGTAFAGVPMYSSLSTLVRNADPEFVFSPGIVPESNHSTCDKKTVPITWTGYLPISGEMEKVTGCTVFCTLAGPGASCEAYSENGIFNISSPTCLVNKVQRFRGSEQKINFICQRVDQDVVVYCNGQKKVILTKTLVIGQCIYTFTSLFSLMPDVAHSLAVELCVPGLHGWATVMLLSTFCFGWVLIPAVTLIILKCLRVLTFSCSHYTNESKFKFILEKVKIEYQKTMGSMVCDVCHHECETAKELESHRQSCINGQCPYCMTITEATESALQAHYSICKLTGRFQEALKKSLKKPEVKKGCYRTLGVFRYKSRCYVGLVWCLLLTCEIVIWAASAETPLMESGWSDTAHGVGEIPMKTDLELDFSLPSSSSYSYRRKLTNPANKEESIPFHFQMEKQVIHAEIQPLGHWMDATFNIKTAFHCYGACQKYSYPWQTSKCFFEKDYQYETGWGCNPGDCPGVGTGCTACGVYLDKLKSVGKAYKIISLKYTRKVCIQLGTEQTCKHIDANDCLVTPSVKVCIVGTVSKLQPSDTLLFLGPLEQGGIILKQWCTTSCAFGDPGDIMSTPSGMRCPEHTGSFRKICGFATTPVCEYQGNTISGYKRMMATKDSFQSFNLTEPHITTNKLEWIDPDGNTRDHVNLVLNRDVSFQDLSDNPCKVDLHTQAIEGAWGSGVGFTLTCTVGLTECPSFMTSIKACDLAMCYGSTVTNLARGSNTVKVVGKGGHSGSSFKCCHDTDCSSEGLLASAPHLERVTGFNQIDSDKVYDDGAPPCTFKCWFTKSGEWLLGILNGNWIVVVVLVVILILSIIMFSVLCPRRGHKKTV
# B1: monoclonal antibody MIB22 (antibody, V domains shown)
# VH: EVQLVQSGAELKKPGSSVKVSCKASGGTFVGYGVSWVRQVPGHGPEWMGGFSPISNTANYAERFQGRVTMIVDGSTSTAYMELRSLRSEDTAIYYCARSCDFWNAYYNNWFDPWGQGTLVTVSS
# VL: AQSALTQPASVSGSPGQSITISCTGTSSDFADYNSVSWYQQHPGKAPKLLIFDVNDRPSGVSHRFSGSKSGNTASLTISGLQAEDESDYYCTSYTICNSYVFGTGTKVTVLG
# notes: also called MIB22 IgG; first antibody
# How the values were obtained:
# [1] = biological target: T1, ANDV glycoprotein (GPC), glycoproteins …
# [2] = biological target: T1, ANDV glycoprotein (GPC), glycoproteins …; assay: cell-based or functional assay
binder,measurement,setting,value
B1,EC50,[1],3.38 µg/mL
same,neutralization capacity relative to JL16,[2],31 fold
same,potency of ANDV neutralization relative to polyclonal IgG from P10,[2],67 fold
